The values below come from article PMC8287531 (2021).

Where no end group is shown, it is not given here.

This experiment deals with T1, talin R7R8 rod domains (UniProt Q9Y490 1359-1659).
T1 chain: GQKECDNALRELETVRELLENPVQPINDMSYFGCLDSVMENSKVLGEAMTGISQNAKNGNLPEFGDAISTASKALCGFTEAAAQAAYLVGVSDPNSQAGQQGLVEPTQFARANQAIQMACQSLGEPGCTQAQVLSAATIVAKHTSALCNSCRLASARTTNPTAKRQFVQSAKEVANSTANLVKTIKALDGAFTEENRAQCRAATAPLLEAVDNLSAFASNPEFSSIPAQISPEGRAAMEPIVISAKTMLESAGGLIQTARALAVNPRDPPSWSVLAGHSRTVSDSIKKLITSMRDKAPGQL
The experiment is described as follows: FP.

B1: RIAM(4-30) peptide, fluorescein-labeled (peptide)
peptide: SEDIDQMFSTLLGEMDLLTQSLGVDTC
modifications: also: fluorescein-labeled, position not given here
On to B1, for which binding was put at a Kd of 3.6 µM.
